Assay results reported in paper PMC9361855.

target: Factor I (UniProt P05156); experiment: ELISA; details: CipA variants coated at 5 ng/µl; FI 10 ng/µl; anti-FI antibody 1:1,000; parent: est. 2.8; read off a plot

Row | Substance | response (Absorbance at 490 nm)
1 | CipA (hexahistidine-tagged, lacking the N-terminal signal sequence, amino acid residues 19-369) V364del | 1.9
2 | CipA (hexahistidine-tagged, lacking the N-terminal signal sequence, amino acid residues 19-369) L363del | 2
3 | CipA (hexahistidine-tagged, lacking the N-terminal signal sequence, amino acid residues 19-369) P367A | 2.1
4 | CipA (hexahistidine-tagged, lacking the N-terminal signal sequence, amino acid residues 19-369) P367del | 2
5 | CipA (hexahistidine-tagged, lacking the N-terminal signal sequence, amino acid residues 19-369) L363del; V364del | 2.7
6 | CipA (hexahistidine-tagged, lacking the N-terminal signal sequence, amino acid residues 19-369) K365A; K366A; K368A; K369A | 2.7

same assay, conditions: CipA variants coated at 5 ng/µl; FI 10 ng/µl; anti-FI antibody 1:1,000; parent: est. 3.1; read off a plot

Row | Substance | response (Absorbance at 490 nm)
7 | CipA (hexahistidine-tagged, lacking the N-terminal signal sequence, amino acid residues 19-369) E360A | 2.8
8 | CipA (hexahistidine-tagged, lacking the N-terminal signal sequence, amino acid residues 19-369) E362A | 2.9
9 | CipA (hexahistidine-tagged, lacking the N-terminal signal sequence, amino acid residues 19-369) E360P | 0.35
10 | CipA (hexahistidine-tagged, lacking the N-terminal signal sequence, amino acid residues 19-369) Q361A | 3.1

target: CipA (hexahistidine-tagged, lacking the N-terminal signal sequence, amino acid residues 19-369) (Acinetobacter baumannii); experiment: ELISA; CipA immobilised (5 µg/ml), increasing amounts of complement component (0 to 50 nM in the methods; 0 to 25 nM FI in the legend); dissociation constant approximated by non-linear regression, one-site specific binding model; details: not given

Row | Substance | Kd [nM]
11 | Factor I (from UniProt P05156 19-335; P05156 340-583) (enzyme) | 3
